Measurements published in article PMC2935574 (The Journal of Cell Biology, 2010).

Target: T1, MIS12 complex (full-length MIS12C) (human, UniProt Q9H081 1-205; Q6P1K2 1-205; Q9H410 1-356; Q96IY1 1-281)
T1 sequence (looked up) 1: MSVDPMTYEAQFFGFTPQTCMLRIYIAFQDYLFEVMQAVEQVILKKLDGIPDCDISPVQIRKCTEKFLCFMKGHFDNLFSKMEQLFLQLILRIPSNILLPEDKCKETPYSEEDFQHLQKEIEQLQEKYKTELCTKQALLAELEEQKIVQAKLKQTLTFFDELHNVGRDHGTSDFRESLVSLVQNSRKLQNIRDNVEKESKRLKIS
T1 sequence (looked up) 2: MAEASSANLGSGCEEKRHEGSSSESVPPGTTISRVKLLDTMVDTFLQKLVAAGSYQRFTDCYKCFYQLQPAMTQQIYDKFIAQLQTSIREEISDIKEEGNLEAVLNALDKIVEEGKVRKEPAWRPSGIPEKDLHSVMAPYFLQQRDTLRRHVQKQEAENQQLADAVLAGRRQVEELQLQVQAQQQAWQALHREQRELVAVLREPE
T1 sequence (looked up) 3: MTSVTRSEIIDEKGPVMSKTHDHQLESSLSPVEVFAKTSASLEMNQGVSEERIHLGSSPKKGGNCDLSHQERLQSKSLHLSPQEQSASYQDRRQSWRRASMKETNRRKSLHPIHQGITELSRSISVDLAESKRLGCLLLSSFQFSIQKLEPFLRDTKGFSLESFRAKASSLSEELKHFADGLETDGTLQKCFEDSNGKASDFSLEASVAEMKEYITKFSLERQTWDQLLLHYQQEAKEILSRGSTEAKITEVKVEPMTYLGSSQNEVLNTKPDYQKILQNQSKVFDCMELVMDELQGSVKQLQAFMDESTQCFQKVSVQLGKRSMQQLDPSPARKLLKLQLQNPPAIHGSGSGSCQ
T1 sequence (looked up) 4: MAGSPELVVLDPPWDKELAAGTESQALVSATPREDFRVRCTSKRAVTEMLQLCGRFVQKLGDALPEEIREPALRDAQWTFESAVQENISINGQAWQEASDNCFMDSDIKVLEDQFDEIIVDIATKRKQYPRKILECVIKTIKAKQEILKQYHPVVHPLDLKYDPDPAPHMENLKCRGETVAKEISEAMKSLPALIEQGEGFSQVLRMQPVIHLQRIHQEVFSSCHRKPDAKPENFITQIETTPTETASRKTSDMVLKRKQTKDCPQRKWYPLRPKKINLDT
Test: pull-down

binding result: binds
B1: GST-KNL1^1904–2316 (domain or fragment, human, UniProt Q8NG31-2 1904-2316, looked up)
chain: EDLMLSQYVYRPKIQIYREDCEARRQKIEELKLSASNQDKLLVDINKNLWEKMRHCSDKELKAFGIYLNKIKSCFTKMTKVFTHQGKVALYGKLVQSAQNEREKLQIKIDEMDKILKKIDNCLTEMETETKNLEDEEKNNPVEEWDSEMRAAEKELEQLKTEEEELQRNLLELEVQKEQTLAQIDFMQKQRNRTEELLDQLSLSEWDVVEWSDDQAVFTFVYDTIQLTITFEESVVGFPFLDKRYRKIVDVNFQSLLDEDQAPPSSLLVHKLIFQYVEEKESWKKTCTTQHQLPKMLEEFSLVVHHCRLLGEEIEYLKRWGPNYNLMNIDINNNELRLLFSSSAAFAKFEITLFLSAYYPSVPLPSTIQNHVGNTSQDDIATILSKVPLENNYLKNVVKQIYQDLFQDCHFYH
